In paper doi:10.1101/2021.04.27.441718:

How the values were obtained:
RbpB [1] = molecular target: T1, RbpB (Bacteroides thetaiotaomicron VPI-5482, UniProt Q8A6J4 1-100); test: EMSA
T1 sequence: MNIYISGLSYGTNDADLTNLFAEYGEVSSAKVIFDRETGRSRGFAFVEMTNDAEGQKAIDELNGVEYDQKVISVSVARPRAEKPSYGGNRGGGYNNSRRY

RbpB [2] = molecular target: T1, RbpB; test: EMSA; remark: listed apart in the source

GUAGGAUAGUAGGAUAGUAGGAUA (ssRNA) [Motif 1 x3] gave a Kd (RbpB [1]) of 5.1 µM.

UCCUGUGCUCCUGUGCUCCUGUGC (ssRNA) [Motif 9 x3]: no binding (RbpB [2]).
